This passage reports protein stability index results from the supplement of paper PMC10567573.

± gives the standard deviation.

A short description of this data set: protein stability index of a GFP-peptide fusion (GPS, HEK-293T) (PSI 1-6); higher = more stable. The note with it: c terminus: a fixed tail appended.
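Note: 24-mer peptide tiles fused after GFP, lentivirally expressed, FACS-sorted into six equal bins by GFP/DsRed ratio, decoded by Illumina sequencing, PSI is the read-weighted mean bin number.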

As for VAGEFSEPVTLETPAFMFRLDAST [FSD1], the protein stability index (treatment: DMSO) was found to be 3.1 ± 0.27 and the protein stability index (treatment: MLN4924 1 uM, 8 h) worked out at 3.16 ± 0.19. For DSEQVPQALRRLRPRTRKVKSVSP [NCF4], in that order: 5.21 ± 0.25 and 5.11 ± 0.24.

For KKRKVDGLSTEAEQPFIPVEVLVD [PRAME], the protein stability index worked out at 3.8 ± 0.52 (treatment: DMSO) and 4.04 ± 0.27 (treatment: MLN4924 1 uM, 8 h). The corresponding values for SVETLDHDSVVEMIRKGGDQTSLL [PDZK1] are 4.44 ± 0.42 and 4.55 ± 0.28. For HTQVLPDVRLLPRRLPLAFRDATS [DYRK1B], in that order: 2.84 ± 0.32 and 3.04 ± 0.22. The corresponding values for SLSHTELEAAEVILEHAHRGEQTT [FCHSD1] are 5.22 ± 0.26 and 5.28 ± 0.11. GKLKAPPKPCAGNQGTQITVEDLF [MLH1] had a protein stability index (treatment: MLN4924 1 uM, 8 h) of 3.65 ± 0.42. In the case of TREAVTEILGIEPDREKGFHLDVE [TSN], the protein stability index by setting is: (treatment: DMSO) 4.62 ± 0.063; (treatment: MLN4924 1 uM, 8 h) 4.64 ± 0.12. The corresponding values for AVVKPGNTKEKIAFFASHQCSNRI [FBXO34] are 3.81 ± 0.24 and 3.83 ± 0.35. ESDSCQKCEQPFFWNIKQMWDTKT [WDFY1]: the protein stability index amounted to 3.25 ± 0.089 (treatment: DMSO) and 3.19 ± 0.24 (treatment: MLN4924 1 uM, 8 h). Turning to DETHPYTVTSVSCCHGNTLLAVRS [NEK8], the protein stability index stood at 2.47 ± 0.12 (treatment: DMSO) and 2.67 ± 0.076 (treatment: MLN4924 1 uM, 8 h). The corresponding values for DVEVPASVTGYSFASDGDSGTCSP [ADD1] are 5.16 ± 0.19 and 5.29 ± 0.11.

In the case of NNILISAVLPTAFRVAKKRAPKVL [GDAP1], the protein stability index was 2.34 ± 0.24 (treatment: DMSO) and 2.48 ± 0.34 (treatment: MLN4924 1 uM, 8 h). The corresponding values for TSDDNLLKNIELFDKLALRFHGRL [KCTD13] are 2.48 ± 0.2 and 2.46 ± 0.4.

In the case of SSECHTSGFVGSGGWFCEGSFNGS [KRT36], the protein stability index runs as follows: (treatment: DMSO) 3.23 ± 0.17; (treatment: MLN4924 1 uM, 8 h) 3.06 ± 0.37. For DSPSKEEVFRFVQSCARAVVPSYI [CPOX], in that order: 2.48 ± 0.55 and 2.5 ± 0.32. For QRLDYEREIQPTAILSLDQIKAIR [SPRY1], in that order: 3.7 ± 0.061 and 3.87 ± 0.24.

As for QFHDLMELFRIGGKSPDTNYLFMG [PPP2CA], the protein stability index came out at 2.53 ± 0.58 (treatment: DMSO) and 2.24 ± 0.39 (treatment: MLN4924 1 uM, 8 h). The corresponding values for WFFLQSELKKLKNLEGNELQRHAD [FUT8] are 2.56 ± 0.34 and 2.71 ± 0.41. As for APSNSTSLNSTFGSTNLTGLFFPP [NFE2L1], the protein stability index was found to be 3.32 ± 0.26 (treatment: DMSO) and 3.08 ± 0.29 (treatment: MLN4924 1 uM, 8 h). RDPQAVKERALSAPWLSLFPPEGN [ZNF263] returned a protein stability index (treatment: DMSO) of 3.06 ± 0.27 and a protein stability index (treatment: MLN4924 1 uM, 8 h) of 3.14 ± 0.33. The corresponding values for PFSFGTLSSWELEAWYEDLQEVLS [DDIT3] are 2.37 ± 0.54 and 2.78 ± 0.21. Regarding EPAGSLRELGVWRSLLRLRATRAG [C2CD2L], the protein stability index is, setting by setting: (treatment: DMSO) 2.88 ± 0.29; (treatment: MLN4924 1 uM, 8 h) 3.06 ± 0.46. The corresponding values for AEEPNAAVPDEIPPLEGDEDASRM [HSP90AB1] are 5.74 ± 0.15 and 5.65 ± 0.15. For TLGGKAFHITNDEPIPFWTFLSRI [NSDHL], the protein stability index by setting is: (treatment: DMSO) 2.19 ± 0.096; (treatment: MLN4924 1 uM, 8 h) 2.28 ± 0.22. For GSESYKSSAGSAEQTAPGDSTGYM [EHMT1], in that order: 5.16 ± 0.25 and 5.21 ± 0.3. For EGSREHAFQITGVWDASRAPRGTP [PLEKHN1], in that order: 4.34 ± 0.27 and 4.39 ± 0.26. For SRVMFLLVDKETDKRHVEQKIQFK [PDZK1], in that order: 2.62 ± 0.32 and 2.88 ± 0.26.

Take VVHQRVHSGEKPYKCSDCGKTFKQ [ZNF232]: the protein stability index reads like this: (treatment: DMSO) 3.29 ± 0.25; (treatment: MLN4924 1 uM, 8 h) 3.43 ± 0.23. Turning to ARRQHLKSVMLQIAATELEKEESR [TNNI2], the protein stability index reads like this: (treatment: DMSO) 4.31 ± 0.23; (treatment: MLN4924 1 uM, 8 h) 4.36 ± 0.33. The corresponding values for MRAAALCDKHSKLFEEPEDPSNRS [PPP2R2C] are 5.14 ± 0.12 and 5.17 ± 0.12. For IQSRVQELHPESGEEAVTLVEDMQ [ZNF263], in that order: 5.42 ± 0.18 and 5.44 ± 0.11.

As for MGGTQQQFVEGVRMEEIVEGCTGA [CTNNB1], the protein stability index turned out to be 5.09 ± 0.15 (treatment: DMSO) and 5.1 ± 0.072 (treatment: MLN4924 1 uM, 8 h). For PPRGPQQLSSFGSVDWLSQSSCSG [VENTX], in that order: 3.77 ± 0.56 and 3.96 ± 0.34. The corresponding values for SFNHNAHLTVHKRIHTGERPYMCK [ZNF8] are 2.76 ± 0.2 and 2.9 ± 0.22. For ESLKVIGRGAFGEVRLVQKKDTGH [STK38L], in that order: 4.69 ± 0.17 and 4.63 ± 0.19. For VFGRLRDENGRPYSPSQYALQYAG [NFE2L1], the protein stability index runs as follows: (treatment: DMSO) 2.86 ± 0.45; (treatment: MLN4924 1 uM, 8 h) 2.65 ± 0.36.
